From paper doi:10.1101/2025.11.10.687450, “ALC1 Finds a New Foothold on the Nucleosome’s Super-Groove” (bioRxiv, 2025)

Biological target: T1, histone H4 (in the PARylated nucleosome) (UniProt P62799 1-103)
T1 construct: histone H4 as in the nucleosome m2; The H4 chain of m2, written on its own for the contact with ALC1's C-ATPase lobe; also called H4 tail
Test: cryo-EM structure; re-analysis of the public dataset EMPIAR-10739 in CryoSPARC: WT ALC1 with an enzymatically PARylated nucleosome (Widom 601 DNA), sample contained ADP-BeF3; 15,740 particles, global resolution 6.60 Å, domains fitted as rigid bodies
Conditions: both partners purified

B1: Amplified in Liver Cancer 1 (ALC1), wild type (enzyme)
chain: MERAGATSRGGQAPGFLLRLHTEGRAEAARVQEQDLRQWGLTGIHLRSYQLEGVNWLAQRFHCQNGCILGDEMGLGKTCQTIALFIYLAGRLNDEGPFLILCPLSVLSNWKEEMQRFAPGLSCVTYAGDKEERACLQQDLKQESRFHVLLTTYEICLKDASFLKSFPWSVLVVDEAHRLKNQSSLLHKTLSEFSVVFSLLLTGTPIQNSLQELYSLLSFVEPDLFSKEEVGDFIQRYQDIEKESESASELHKLLQPFLLRRVKAEVATELPKKTEVVIYHGMSALQKKYYKAILMKDLDAFENETAKKVKLQNILSQLRKCVDHPYLFDGVEPEPFEVGDHLTEASGKLHLLDKLLAFLYSGGHRVLLFSQMTQMLDILQDYMDYRGYSYERVDGSVRGEERHLAIKNFGQQPIFVFLLSTRAGGVGMNLTAADTVIFVDSDFNPQNDLQAAARAHRIGQNKSVKVIRLIGRDTVEEIVYRKAASKLQLTNMIIEGGHFTLGAQKPAADADLQLSEILKFGLDKLLASEGSTMDEIDLESILGETKDGQWVSDALPAAEGGSRDQEEGKNHMYLFEGKDYSKEPSKEDRKSFEQLVNLQKTLLEKASQEGRSLRNKGSVLIPGLVEGSTKRKRVLSPEELEDRQKKRQEAAAKRRRLIEEKKRQKEEAEHKKKMAWWESNNYQSFCLPSEESEPEDLENGEESSAELDYQDPDATSLKYVSGDVTHPQAGAEDALIVHCVDDSGHWGRGGLFTALEKRSAEPRKIYELAGKMKDLSLGGVLLFPVDDKESRNKGQDLLALIVAQHRDRSNVLSGIKMAALEEGLKKIFLAAKKKKASVHLPRIGHATKGFNWYGTERLIRKHLAARGIPTYIYYFPRSKSAVLHSQSSSSSSRQLVP
notes: ALC1 (chromatin remodeler), human, UniProt Q86WJ1; wild type; residues 28-874 are modelled in the map; The sample is that of the public dataset EMPIAR-10739; also called WT ALC1
- binding result: binds
